Data from the DeepSol protein solubility set.

Assay: soluble on expression in E. coli; label from the status in PepcDB or PDB records

Sequence | soluble on expression in E. coli
MGSDKIHHHHHHMSSNTFTLGTKSVNRLGYGAMQLAGPGVFGPPRDRHVAITVLREALALGVNHIDTSDFYGPHVTNQIIREALYPYSDDLTIVTKIGARRGEDASWLPAFSPAELQKAVHDNLRNLGLDVLDVVNLRVMMGDGHGPAEGSIEASLTVLAEMQQQGLVKHIGLSNVTPTQVAEARKIAEIVCVQNEYNIAHRADDAMIDALAHDGIAYVPFFPLGGFTPLQSSTLSDVAASLGATPMQVALAWLLQRSPNILLIPGTSSVAHLRENMAAEKLHLSEEVLSTLDGISRE | not soluble
HGDHMHNHDTKMDTMSKDMMSMEKIVVPVQQLDPQNGNKDVGTVEITESAYGLVFTPKLHDLAHGLHGFHIHEKPSCEPKEKDGKLVAGLGAGGHWDPKQTQKHGYPWSDDAHMGDLPALFVMHDGSATTPVLAPRLKKLAEVKGHSLMIHAGGDNHSDHPAPLGGGGPRMACGVIK | soluble
MTMTPVSDPIPIGNQEDKENIEDAENTMNISPACDRILVDHQYTRDVVITGKCSSLTYKKA | not soluble
MGSDKIHHHHHHMKEISCGRRTRVSFGKSREPLPIPDLVEIQKSSYRRFLEEGLLEVLKKFSPIYSQATRSDLRKSDRGFALEFVSTRTGEPAIDPLECKAKGLTYSVPIYATARLTDMKSGEMKEEEVFLGYIPYMTDRGTFIINGAERVVVNQIVVSPGLYFSSEYIDREEYGGYFLPSRGAWLEVILDPYDGVLYAGLDGKKVNLFLFLKTIGYEKDEDILSLYPTYLDADDEDSLLLHVGSILLEDIYDGGRKIAEKWDILTKDLAERILMIDDINQIKIVHPIAQNTFEKMLEVVSSSSEEGEEEEEKTKIYGLNEVTVVDAYLEIFRRLRPEELPRINAAKRYLHDLFFNPERYDLSEVGRYKVNERLRNAYIRYLIEVEGEDPEEARKKVYNETSLVLKPLDIVLASRILFDYFERRYVNDFEIDSYELKNLIRIFKEEYLEKRKTAPYDLRKLVSVFRRNYGVTSDLGVFAAIRYVSNINKELPSIPFDTKDHLGNKRVRTVGELVQREFERLFARAQKAIQERLTLINSLSKVSIQSLINIKSIISTVNQFFAMNQLSQFMDQVNPLSELTHKRRVSAVGPGGLRRESKVFEARNVHYSQYGRLCPIETPEGANIGFITSLAIYAKIDEYGFLMTPYRKVVNGKVTDEVVYLRANEEEEYKIIPATTPVDEEGNIIPERVVARMGEDIRLVPKEEVDFMDVSTKQPFSVSASLIPFLEHDDASRALMGSNMQRQAVPLLKTEAPLVGTGMEWEAAKNSGYVILAEHDGIVKEVDAARVVVHRTDENGNLMYDDKGNPVVDEYRLLKFVRSNQDTMINQKPIVNEGDFVKKGDPIADGPATDMGELALGRNILVAFMPWEGYNYEDAILVSQELLEEDVFTSIHIEVYETQARETRLGPEEITADIPNVSKELLKNLDENGIIRVGAYVVSDYGVGSQAILVGKVTPKGEGDTTPEEKIIRSVFGERGRDVKDTSLRLPHGVEGRVIRVDVYDQNDIAELGAGVLKLVRVYVASRKTLDIGDKLAGRHGNKGVVSNILPKEDMPFLPDGTPVQMVLNPLGIPSRMNVGQILETHLGWLAKLTGKWFATPVFEGAKEDEILRPLYEERKKRGLHLGDDENNPNGKVVLRDGRTGEPFDNPVVVGYMYMLKLIHIAKEKIHARSTGPYSLIHQQPLGGKSHFGGQRLGEMEVWALEAYGAAHTLAEMLTIKSDDIKGRNEAYKAILKNMNIPEPGVPESFRVLIKELRGLALDVRLYDENGNEIDIDKY | not soluble
MHSYHNPGVPTALSIFEPLQDGSTISVHGHVRHGHHKNFAVELLSGPNVVLHVNFRFHHEHVVVMNSQFSGMWGPEIRHKNPLHHSEHFHLSIKVHAGYYHISVNGHHLADYPHRYPYQSVQAIGLKGDVHVDKVHFEGFHFQRRWDGHVDHGHSGYNAYGTETYVAPVFVQPNFMPYGAPPPPVQNFNPYR | not soluble
MEKTTEGAFYTREYRNLFKEFGYSEAEIQERVKDTWEQLFGDNPETKIYYEVGDDLGYLLDTGNLDVRTAGMSYGMMMAVQMDRKDIFDRIWNWTMKNMYMTEGVHAGYFAWSCQPDGTKNSWGPAPDGEEYFALALFFASHRWGDGDEQPFNYSEQARKLLHTCVHNGEGGPGHPMWNRDNKLIKFIPEVEFSDPSYHLPHFYELFSLWANEEDRVFWKEAAEASREYLKIACHPETGLAPEYAYYDGTPNDEKGYGHFFSDSYRVAANIGLDAEWFGGSEWSAEEINKIQAFFADKEPEDYRRYKIDGEPFEEKSLHPVGLIATNAMGSLASVDGPYAKANVDLFWNTPVRTGNRRYYDNCLYLFAMLALSGNFKIWFPEGQEEEHLEHHHHHH | soluble
KAPLDEIADDSFWSDETLVKYYVNDLYSEISVDGLQLQENRSDNSVSAQRDKYRASWFKFNYDMVSASDPQDDDVWEDYYVKVRKCNRFFERIGTSTIEESEKSRLTGEVHFLRAMFYFEMVKRYGGVILLDKVLTMEDNWEIPRSSEKECYDFILEDLKKATEMLPASYGSREKGRATKGAAYALKSRVELYDKRYEDVIKSCAEVYKLGYELVDGTTPEKYRSIWWTTNKDNKEIIFDVQYKSPDVYNNMMVCNMVTYINDKYGDRGWGGLGPTQELIDAFEMADGTPATQYSQAPADQVFDINTCGIYEGREPRFYANIVFHGSQIFFNADKGAVTVDRYLMDTPDKGDGSLTGYNVWKWIDYDNYNYPYAGAGSPDFSTNWIILRYAEIYLNDAEARLETGDVEGARKAVNMIRQRVGLPDLTESDPEKLRELIRKERRIEFAFEEQRFYDVRRWKIGPETQTTLHGVRFVSPTEFKVTKTDIRTWNDRLYLTPVPHDEIVRSSVLKQNLGY | soluble
MGSDKIHHHHHHMIVEKVLIVDPIDGEFTGDVEIEEGKIVKVEKRECIPRGVLMPGFVDPHIHGVVGADTMNCDFSEMEEFLYSQGVTTFLATTVSTSLEKMKEILRKARDYILENPSTSLLGVHLEGPYISKEKKGAHSEKHIRPPSERELSEIDSPAKMLTFAPEIESSELLLRLVKRDIVLSAGHSIATFEEFMKFYKEGVKRITHFPNGLKPLHHREIGITGAGLLLDDVKLELICDGVHLSREMVKLVYKVKKANGIVLVTDSISAAGLKDGTTTLGDLVVKVKDGVPRLEDGTLAGSTLFFSQAVKNFRKFTGCSITELAKVSSYNSCVELGLDDRGRIAEGTRADLVLLDEDLNVVMTIKEGEVVFRSR | soluble
MDMNEEYGLTPYETREILFYKTDNGEVRVEILLYQENLWLTQAKMAELFEVQKAAISKHLKNIFTSGELQEEAVVSKMETTAADGKRYNTSYYNLDAIIAVGYRVNSKKATMFRIWANRVLKEFIIKGYVMDDARLREPENLFGKDYFEEQLERIRDIRSSERRFYQKITDIYSQCSADYDVNSPVTKEFFATVQNKLHYAVTHHTAAEIVYGRADSTKPNMGLTTWKNAPQGRIRKSDVSIAKNYLNEEEMINLNEIVTMYLDYAERQARRGNIMYMQDWVNRLDAFLQFNEEDILHDKGKVTAAIAKAFAESEFEKFRVLQDRTYQSDFDRLVANIEENSKQTK | not soluble
MSANQEEDKKPGDGGAHINLKVKGQDGNEVFFRIKRSTQLKKLMNAYCDRQSVDMNSIAFLFDGRRLRAEQTPDELDMEDGDEIDAMLHQTGGSGGGATA | soluble
MEKKITGYTTVDISQWHRKEHFEAFQSVAQCTYNQTVQLDITAFLKTVKKNKHKFYPAFIHILARLMNAHPEFRMAMKDGELVIWDSVHPCYTVFHEQTETFSSLWSEYHDDFRQFLHIYSQDVACYGENLAYFPKGFIENMFFVSANPWVSFTSFDLNVANMDNFFAPVFTMGKYYTQGDKVLMPLAIQVHHAVCDGFHVGRMLNELQQYCDEWQGGA | soluble
MLNPDELVAIDIHTHAEEPCGCHADDGYDDFQARMAEYFGSPNKHPPTVPETAAYYRAKKIAAVIFPVDAERETGFRRYNNDEMIEITRQNSDVLIPFASIDPHKGKIGVREARRLIADYGIKGFKFHPTMQGFYANDRLAYPLYEAIQEGGAIALFHTGQTGVGSGMPGGMGMRLKYSNPMYMDDVAADFPDMKIVLAHPSFPWQEEALSVATHKPNVYIDLSGWSPKYFPPILVRYINSILQDKMLFGSDWPVITPDRWLSDFAKLEIREEVRAKVLKQNARKLLGIAAALEHHHHHH | not soluble
MGVSLAKGGNVSLSKEAPGLTAVLVGLGWDVRTTTGTDYDLDASALLLDTSGKVLSDGHFVFYNNLTSPDGSVEHTGDNLTGEGEGDDEAVKVNLVAVPAEVDRIVFPVSIHDAENRGQSFGQVRNAFIRVVNQANNQELARYDLSEDASTETAMVFGELYRHGAEWKFRAVGQGYASGLAGIAADFGVNV | not soluble
MARTREFDTEAAVSRAMELFWTRGYEATSVRDLTGHLGIGQGSLYAAFGDKDGLYRAALEHYRTTLAAAALRSLEEGTDARSAIRTMLVERIRIAVDDNGRGCLAVNAACERLPEDAATRRTVRDMQDAGRDALTEVLRVAAERGEIAKRHDPHTLAAFLVTFLNGLLVSSKITPDVRALEPLVEVALAALD | not soluble
SLPHCETLLLEPIEGVLRITLNRPQSRNAMSLAMVGELRAVLAAVRDDRSVRALVLRGADGHFCAGGDIKDMAGARAAGAEAYRTLNRAFGSLLEEAQAAPQLLVALVEGAVLGGGFGLACVSDVAIAAADAQFGLPETSLGILPAQIAPFVVRRIGLTQARRLALTAARFDGREALRLGLVHFCEADADALEQRLEETLEQLRRCAPNANAATKALLLASESGELGALLDDAARQFAEAVGGAEGS | not soluble
MGSDKIHHHHHHCLDVDIVDRVEKEDGFFKTEDHALAAINGVYSTLYAFAYHKTNWAIILPTYEDAMFSTGNAVPATVSNNTHSAGSAPVVNFWGELYNGIKNANEVIARVPSISFKSENDKNRIIAEAYFLRALYHYDLMRLYGGVNGIPIVIEPVTGIENAYVPQSPASKVYEQIISDFEYAAGLNDDDTPRLPKRLDPAYTSGRVTNGAAHAFLAEVYLTLGRWEDAAREAQEVISSEQYTFVNDYQNLWDIEQESLAQTEHIFSVPFFRDKDALADQSLGSNIAHLFNPAGVQVGGKLVSGNPYGKGAGAHRVQKWFIKYFQDDQGNLGYSDPSVDASIDESKLISKDYRIEVTFWRRFQQKNNNTGVLGNIVTVYPAAGGNSQENWGYIRKFIDPQGINNRTNENDMPRLRLSDMYLIRAEALNELGKYTEACQAIDMVRERARKANGTERAYPKYIGSDRPDNIGRTLTKQEFRWLVFMERGLEFAGEQKRWFDLIRMKYDENTQMYDYIKDTFIPSRPAADVQKQGVMAARKKYFPIPFAEVSRNDGVQQNPGY | not soluble
MAHHHHHHMASSSDADGKEVGSSGEGNRATGGKWRRPSLAQQRARRAQLPPAFDVVHWNDEDISRGHLLRVLHRDTFVVLDYHRQARMLTEEGNKAERVVSVMLPAVYTARFLAVLEGRSEKVEVHSRYTNATFTPNPAAPYTFTLKCTSTRPAQQKQQVAGEEGDETFEWTVEFDVAESLMLQRFLTQALHYNTGFARTSV | soluble
MSLQFYSVQTNTLKLATTTFNAEGSMLLSTHWTLNLGFSYNPWNFSDTRKIKHFLIEPGARYWFWQTYAGSFISMYAMGARYNVAWDGLLGGDYRYQGWGYGAGMTYGRSWLLSKRWNMEVEAGLGLLVAPYTKYRCEHCGDKVKSGTYFLPTPKLAFNLVYLFEGHHHHHH | not soluble
